Measurements taken from article PMC3050036.

Target: presenilin-1 (wild-type PS1) (UniProt P49768)
Test: FRET or BRET

- Alexa 430 donor lifetime with Cy3 acceptor on PS1 CT: 1350 psec
- FRET strength: 0.3
Substance: V5-tagged ubiquilin-1 transcript variant 3 (TV3) (natural protein)
